Data: publication PMC9352680, “A comprehensive thermodynamic model for RNA binding by the Saccharomyces cerevisiae Pumilio protein PUF4”
Numbering of substitutions follows the chain as printed. In names and notes the source's numbering stands.

T1: PUF4 RNA-binding domain (Saccharomyces cerevisiae, UniProt P25339 537-888)
T1 sequence: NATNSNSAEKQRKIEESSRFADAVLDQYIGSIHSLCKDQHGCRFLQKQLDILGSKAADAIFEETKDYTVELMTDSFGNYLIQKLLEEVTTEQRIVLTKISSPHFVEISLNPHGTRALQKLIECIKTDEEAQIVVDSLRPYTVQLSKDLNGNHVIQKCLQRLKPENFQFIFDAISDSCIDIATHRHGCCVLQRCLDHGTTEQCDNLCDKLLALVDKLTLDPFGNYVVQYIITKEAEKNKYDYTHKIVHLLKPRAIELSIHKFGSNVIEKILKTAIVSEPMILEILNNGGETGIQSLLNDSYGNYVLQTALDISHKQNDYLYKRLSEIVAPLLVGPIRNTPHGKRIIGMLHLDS

B1: Ic_S1_P3E.1_K3.1_C3.1_H3.1_A3.1_[T5C]_[A6G]_F3.1_[T7C]_T3.1 (ssRNA)
RNA: UCUCUUUGUACGCAUCUCUU
B2: Ic_S1_P3E.1_K3.1_C3.1_H3.1_A3.1_[T5A]_[A6G]_F3.1_[T7C]_[A8C]_T3.1 (ssRNA)
RNA: UCUCUUUGUAAGCCUCUCUU
B3: Ic_S1_P3E.1_K3.1_C3.1_H3.1_A3.1_[T5C]_[A6G]_F3.1_[T7A]_[A8T]_T3.1 (ssRNA)
RNA: UCUCUUUGUACGAUUCUCUU
B4: Ic_S1_P3E.1_K3.1_C3.1_H3.1_A3.1_[T5C]_[A6T]_F3.1_[T7C]_T3.1 (ssRNA)
RNA: UCUCUUUGUACUCAUCUCUU
B5: Ic_S1_P3E.1_K3.1_C3.1_H3.1_A3.1_[T5C]_[A6T]_F3.1_[T7C]_[A8T]_T3.1 (ssRNA)
RNA: UCUCUUUGUACUCUUCUCUU
B6: Ic_S1_P3E.1_K3.1_C3.1_H3.1_A3.1_[T5C]_[A6C]_F3.1_[T7A]_[A8T]_T3.1 (ssRNA)
RNA: UCUCUUUGUACCAUUCUCUU
B7: Ic_S1_P3E.1_K3.1_C3.1_H3.1_A3.1_[T5C]_[A6G]_F3.1_[T7C]_[A8T]_T3.1 (ssRNA)
RNA: UCUCUUUGUACGCUUCUCUU
B8: Ic_S1_P3E.1_K3.1_C3.1_H3.1_A3.1_[T5C]_[A6G]_F3.1_[T7A]_T3.1 (ssRNA)
RNA: UCUCUUUGUACGAAUCUCUU
B9: Ic_S1_P3E.1_K3.1_C3.1_H3.1_A3.1_[T5C]_[A6C]_F3.1_[A8C]_T3.1 (ssRNA)
RNA: UCUCUUUGUACCUCUCUCUU
B10: Ic_S1_P3E.1_K3.1_C3.1_H3.1_A3.1_[T5C]_[A6G]_F3.1_[A8T]_T3.1 (ssRNA)
RNA: UCUCUUUGUACGUUUCUCUU
B11: Ic_S1_P3E.1_K3.1_C3.1_H3.1_A3.1_[T5G]_[A6T]_F3.1_[T7A]_[A8T]_T3.1 (ssRNA)
RNA: UCUCUUUGUAGUAUUCUCUU
B12: Ic_S1_P3E.1_K3.1_C3.1_H3.1_A3.1_[T5A]_[A6G]_F3.1_[T7C]_T3.1 (ssRNA)
RNA: UCUCUUUGUAAGCAUCUCUU
B13: Ic_S1_P3E.1_K3.1_C3.1_H3.1_A3.1_[T5C]_[A6C]_F3.1_[A8T]_T3.1 (ssRNA)
RNA: UCUCUUUGUACCUUUCUCUU
B14: Ic_S1_P3E.1_K3.1_C3.1_H3.1_A3.1_[T5C]_F3.1_[T7A]_[A8G]_T3.1 (ssRNA)
RNA: UCUCUUUGUACAAGUCUCUU
B15: Ic_S1_P3E.1_K3.1_C3.1_H3.1_A3.1_[T5C]_F3.1_[T7A]_[A8T]_T3.1 (ssRNA)
RNA: UCUCUUUGUACAAUUCUCUU
B16: Ic_S1_P3E.1_K3.1_C3.1_H3.1_A3.1_[T5C]_[A6G]_F3.1_[A8G]_T3.1 (ssRNA)
RNA: UCUCUUUGUACGUGUCUCUU
B17: Ic_S1_P3E.1_K3.1_C3.1_H3.1_A3.1_[T5C]_[A6T]_F3.1_[T7A]_T3.1 (ssRNA)
RNA: UCUCUUUGUACUAAUCUCUU
B18: Ic_S1_P3E.1_K3.1_C3.1_H3.1_A3.1_[T5C]_[A6C]_F3.1_[T7A]_[A8C]_T3.1 (ssRNA)
RNA: UCUCUUUGUACCACUCUCUU
B19: Ic_S1_P3E.1_K3.1_C3.1_H3.1_A3.1_[T5C]_[A6C]_F3.1_[T7C]_[A8T]_T3.1 (ssRNA)
RNA: UCUCUUUGUACCCUUCUCUU
B20: Ic_S1_P3E.1_K3.1_C3.1_H3.1_A3.1_[T5C]_[A6T]_F3.1_[T7G]_[A8C]_T3.1 (ssRNA)
RNA: UCUCUUUGUACUGCUCUCUU
B21: Ic_S1_P3E.1_K3.1_C3.1_H3.1_A3.1_[T5G]_[A6T]_F3.1_[T7A]_T3.1 (ssRNA)
RNA: UCUCUUUGUAGUAAUCUCUU
B22: Ic_S1_P3E.1_K3.1_C3.1_H3.1_A3.1_[T5C]_[A6G]_F3.1_[T7G]_[A8T]_T3.1 (ssRNA)
RNA: UCUCUUUGUACGGUUCUCUU
B23: Ic_S1_P3E.1_K3.1_C3.1_H3.1_A3.1_[T5C]_[A6T]_F3.1_[T7C]_[A8C]_T3.1 (ssRNA)
RNA: UCUCUUUGUACUCCUCUCUU
B24: Ic_S1_P3E.1_K3.1_C3.1_H3.1_A3.1_[T5G]_[A6T]_F3.1_[A8G]_T3.1 (ssRNA)
RNA: UCUCUUUGUAGUUGUCUCUU
B25: Ic_S1_P3E.1_K3.1_C3.1_H3.1_A3.1_[T5C]_[A6T]_F3.1_[T7G]_[A8G]_T3.1 (ssRNA)
RNA: UCUCUUUGUACUGGUCUCUU
B26: Ic_S1_P3E.1_K3.1_C3.1_H3.1_A3.1_[T5C]_F3.1_[T7A]_[A8C]_T3.1 (ssRNA)
RNA: UCUCUUUGUACAACUCUCUU
B27: Ic_S1_P3E.1_K3.1_C3.1_H3.1_A3.1_[T5C]_[A6T]_F3.1_[A8G]_T3.1 (ssRNA)
RNA: UCUCUUUGUACUUGUCUCUU
B28: Ic_S1_P3E.1_K3.1_C3.1_H3.1_A3.1_[T5C]_[A6C]_F3.1_[T7G]_[A8T]_T3.1 (ssRNA)
RNA: UCUCUUUGUACCGUUCUCUU
B29: Ic_S1_P3E.1_K3.1_C3.1_H3.1_A3.1_[T5C]_[A6C]_F3.1_[A8G]_T3.1 (ssRNA)
RNA: UCUCUUUGUACCUGUCUCUU
B30: Ic_S1_P3E.1_K3.1_C3.1_H3.1_A3.1_[T5C]_[A6C]_F3.1_[T7C]_T3.1 (ssRNA)
RNA: UCUCUUUGUACCCAUCUCUU
B31: Ic_S1_P3E.1_K3.1_C3.1_H3.1_A3.1_[T5C]_[A6T]_F3.1_[A8C]_T3.1 (ssRNA)
RNA: UCUCUUUGUACUUCUCUCUU
B32: Ic_S1_P3E.1_K3.1_C3.1_H3.1_A3.1_[T5C]_F3.1_[T7C]_[A8G]_T3.1 (ssRNA)
RNA: UCUCUUUGUACACGUCUCUU
B33: Ic_S1_P3E.1_K3.1_C3.1_H3.1_A3.1_[T5G]_[A6T]_F3.1_[A8T]_T3.1 (ssRNA)
RNA: UCUCUUUGUAGUUUUCUCUU
B34: Ic_S1_P3E.1_K3.1_C3.1_H3.1_A3.1_[T5C]_[A6T]_F3.1_[T7A]_[A8G]_T3.1 (ssRNA)
RNA: UCUCUUUGUACUAGUCUCUU
B35: Ic_S1_P3E.1_K3.1_C3.1_H3.1_A3.1_[T5A]_[A6G]_F3.1_[T7C]_[A8G]_T3.1 (ssRNA)
RNA: UCUCUUUGUAAGCGUCUCUU
B36: Ic_S1_P3E.1_K3.1_C3.1_H3.1_A3.1_[T5C]_F3.1_[T7G]_[A8C]_T3.1 (ssRNA)
RNA: UCUCUUUGUACAGCUCUCUU
B37: Ic_S1_P3E.1_K3.1_C3.1_H3.1_A3.1_[T5C]_[A6G]_F3.1_[T7G]_[A8C]_T3.1 (ssRNA)
RNA: UCUCUUUGUACGGCUCUCUU
B38: Ic_S1_P3E.1_K3.1_C3.1_H3.1_A3.1_[T5C]_[A6T]_F3.1_[T7A]_[A8C]_T3.1 (ssRNA)
RNA: UCUCUUUGUACUACUCUCUU
B39: Ia_S4_P5E.1_K5.1_C5.1_H5.1_A5.1_F5.1_[T9A]_T5.1 (ssRNA)
RNA: UUUGACAACUGAUCGUUCUUUCUUGUAUUAUAAUUCUUUCUCGAUCAGUUGUCUUU
B40: Ic_S4_P5E.1_K5.1_C5.1_H5.1_A5.1_F5.1_[A10G]_T5.1 (ssRNA)
RNA: B39 RNA with A32U, A33G
B41: Ia_S4_P5E.1_K5.1_C5.1_H5.1_[T1A]_A5.1_F5.1_T5.1 (ssRNA)
RNA: B39 RNA with U24A, A32U
B42: Ia_S4_P5E.1_K5.1_C5.1_H5.1_[A4C]_A5.1_F5.1_T5.1 (ssRNA)
RNA: B39 RNA with A27C, A32U
B43: Ic_S1_P3E.1_K3.1_C3.1_H3.1_A3.1_[T5C]_[A6T]_F3.1_[T7A]_[A8T]_T3.1 (ssRNA)
RNA: UCUCUUUGUACUAUUCUCUU
B44: Ic_S1_P3E.1_K3.1_C3.1_H3.1_A3.1_[T5C]_F3.1_[T7C]_[A8T]_T3.1 (ssRNA)
RNA: UCUCUUUGUACACUUCUCUU
B45: Ic_S1_P3E.1_K3.1_C3.1_H3.1_A3.1_[T5C]_[A6C]_F3.1_[T7G]_[A8C]_T3.1 (ssRNA)
RNA: UCUCUUUGUACCGCUCUCUU
B46: Ic_S1_P3E.1_K3.1_C3.1_H3.1_A3.1_[T5A]_[A6G]_F3.1_[T7C]_[A8T]_T3.1 (ssRNA)
RNA: UCUCUUUGUAAGCUUCUCUU
B47: Ic_S1_P3E.1_K3.1_C3.1_H3.1_A3.1_[T5C]_F3.1_[T7C]_[A8C]_T3.1 (ssRNA)
RNA: UCUCUUUGUACACCUCUCUU
B48: Ic_S1_P3E.1_K3.1_C3.1_H3.1_A3.1_[T5C]_[A6G]_F3.1_[T7C]_[A8C]_T3.1 (ssRNA)
RNA: UCUCUUUGUACGCCUCUCUU
B49: Ic_S1_P3E.1_K3.1_C3.1_H3.1_A3.1_[T5C]_[A6T]_F3.1_[A8T]_T3.1 (ssRNA)
RNA: UCUCUUUGUACUUUUCUCUU
B50: Ic_S1_P3E.1_K3.1_C3.1_H3.1_A3.1_[T5C]_[A6C]_F3.1_[T7C]_[A8C]_T3.1 (ssRNA)
RNA: UCUCUUUGUACCCCUCUCUU

Target: T1, PUF4 RNA-binding domain
Assay: Mg; RNA-MaP; 20 mM Na-HEPES pH 7.4, 30 mM KOAc, 0.75 mM MgCl2, 0.1% Tween-20, 5% glycerol, 0.1 mg/mL BSA, 2 mM DTT; 25 C; 0.0125-409.6 nM protein
Conditions: tags: N-His6-TEV cleaved; C-SNAP kept, Cy3B-labelled; label: tethered on chip by stalled RNA polymerase

Compared with B1, B2 is 1.8-fold higher in Kd: 872 nM for the first, 1550 nM for the second.

Compared with B3, B4 is 15-fold higher in Kd: 29.9 nM for the first, 445 nM for the second.

Compared with B5, B6 is 5.5-fold lower in Kd: 44.3 nM for the first, 8.04 nM for the second.

First: B7
Second: B8
The Kd of the first is 14-fold lower: 62.7 nM for the first, 891 nM for the second. The first binds more tightly here.

Compared with B9, B10 is 3.9-fold lower in Kd: 157 nM for the first, 40.7 nM for the second.

Compared with B11, B12 is higher in Kd: 86.2 nM for the first, > 2300 nM for the second. The first binds more tightly here.

First: B13
Second: B14
The Kd of the first is 21-fold lower: 34 nM for the first, 704 nM for the second. The first binds more tightly here.

Compared with B15, B16 is 44-fold higher in Kd: 11.1 nM for the first, 492 nM for the second. The first binds more tightly here.

First: B17
Second: B18
The Kd of the first is 2.5-fold lower: 77.4 nM for the first, 192 nM for the second.

First: B19
Second: B20
The Kd of the first is 14-fold lower: 59.5 nM for the first, 842 nM for the second. The first binds more tightly here.

Going from B21 to B22, the Kd falls from 1270 nM to 385 nM (3.3-fold).

First: B23
Second: B24
The Kd of the first is 4.4-fold lower: 384 nM for the first, 1680 nM for the second.

First: B25
Second: B26
The Kd of the first is 21-fold higher: 1060 nM for the first, 50.4 nM for the second.

First: B27
Second: B28
The Kd of the first is 3.5-fold lower: 112 nM for the first, 391 nM for the second.

Going from B29 to B30, the Kd rises from 115 nM to 429 nM (3.7-fold).

Compared with B31, B32 is 7-fold lower in Kd: 190 nM for the first, 27.2 nM for the second. The second binds more tightly here.

B33 and B34 are within 1.5-fold of each other in Kd: 403 nM for the first, 524 nM for the second.

Going from B35 to B36, the Kd falls from 1910 nM to 76.7 nM (25-fold). The second binds more tightly here.

Compared with B37, B38 is 5-fold lower in Kd: 1730 nM for the first, 349 nM for the second. The second binds more tightly here.

Compared with B39, B40 is 5.7-fold higher in Kd: 2.07 nM for the first, 11.8 nM for the second. The first binds more tightly here.

Going from B41 to B42, the Kd falls from > 2300 nM to 13.1 nM. The second binds more tightly here.

B43 and B44 are within 1.5-fold of each other in Kd: 9.51 nM for the first, 9.72 nM for the second.

Compared with B45, B46 is 1.5-fold lower in Kd: 989 nM for the first, 653 nM for the second.

First: B47
Second: B48
The Kd of the first is 17-fold lower: 41.8 nM for the first, 719 nM for the second. The first binds more tightly here.

First: B49
Second: B50
The Kd of the first is 49-fold lower: 19.5 nM for the first, 953 nM for the second.
